Where a chain is given by its changes, count along the chain named.

B1: BD-508 (antibody, V domains shown)
VH: EVQLVESGGGLVQPGGSLRLSCAASGFIVSSNYMTWVRQAPGKGLEWVSVIYSGGSTFYADSVKGRFTISRHNSKNTLFLQMNSLRAEDTAVYYCARDAQNYGMDVWGQGTTVTVSS
VL: DIQMTQSPSSLSASVGDRVTITCRASQSISSYLNWYQQKPGKAPKLLIFAASSLQTGAPSRFSGSGSGTDFTLTISSLQPEDFATYYCQQSYSTPPYTFGQGTKLEIK
B2: BD-515 (antibody, V domains shown)
VH: EVQLVESGGGLVQPGGSLRLSCAASEFIVSRNYMSWVRQAPGKGLEWVSVIYSGGSTFYADSVKGRFTISRDNSKNTLYLQMNSLRAEDTGVYYCARDRGLVSDYWGQGTLVTVSS
VL: DIQMTQSPSSLSASVGDRVTITCQASQDINKYLNWYQQKPGKAPKLLIFDASHLETGVPSRFSASGSGTDFTFTISSLQPEDIATYYCHQYDNLPRTFGQGTRLEIK
B3: BD-604 (antibody, V domains shown)
VH: B1 VH with V12I, F27I, H72D, F79Y, N83S, A99L, Q100G, N101P
VL: DIQLTQSPSFLSASVGDRVTITCRASQGISSDLAWYQQKPGKAPNLLIYAASTLQSGVPSRFSGSGSGTEFTLTISSLQPEDFATYYCQQLNSDLYTFGQGTKLEIK
B4: BD-503 (antibody, V domains shown)
VH: EVQLVESGGGLIQPGGSLRLSCAASGLIVSSNYMSWVRQAPGKGLEWVSVLYAGGSTDYAGSVKGRFTISRDNSKNTLYLQMNSLRAEDTAVYYCARDAAVYGIDVWGQGTTVTVSS
VL: not shown
B5: BD-623 (antibody, V domains shown)
VH: EVQLVESGGGLVQPGGSLRLSCAASGFTVSSNYMSWVRQAPGKGLEWVSIIYSGGSTYYADSVKGRFTISRDNSKNTLYLQMNSLRAEDTAVYYCARDYAGRVWGQGTLVTVSS
VL: QSALTQPASVSGSPGQSITISCTGTSSDVGSYNLVSWYQQRPGKAPKLILYEVTKRPSGVSNRFSGSKSGNTASLAISGLQAEDEADYYCCSYAGSSTWVFGGGTKLTVL

One test deals with T1, SARS-CoV-2 RBD (SARS-CoV-2, UniProt P0DTC2 319-541). As to the kind of experiment: SPR. Background: SPR reads the build-up and loss of mass on a sensor chip optically.
By koff is commonly meant a measure of how fast the partners let go of each other. With B1, the dissociation rate constant (koff) was 0.000514 s⁻¹. Molecule B2 had a koff of 0.000389 s⁻¹.

In another test the target is T1, SARS-CoV-2 RBD. Put plainly: SPR. This is another data set of the same source.
As usually defined, the Kd is a measure of binding affinity in units of concentration. Lower therefore signals a tighter complex. B3: the Kd was 0.012 nM. The molecule B1 returned a Kd of 1.3 nM. Same read-out and setting: the result for B4 reads 0.204 nM; that for B2, 0.561 nM; that for B5, 0.12 nM.

Values taken from publication PMC8413711 (2021).
